Laboratory results published in PMC4908976 (Science signaling, 2016).
Blank lines part the entries; values can stand above or below the binder they belong to.

Molecular target: T1, Gβγ on affinity beads (Gβ with 3xHA-tagged Gγ) (S. cerevisiae, UniProt P18851 1-423; P18852 1-110)
T1 sequence (looked up) 1: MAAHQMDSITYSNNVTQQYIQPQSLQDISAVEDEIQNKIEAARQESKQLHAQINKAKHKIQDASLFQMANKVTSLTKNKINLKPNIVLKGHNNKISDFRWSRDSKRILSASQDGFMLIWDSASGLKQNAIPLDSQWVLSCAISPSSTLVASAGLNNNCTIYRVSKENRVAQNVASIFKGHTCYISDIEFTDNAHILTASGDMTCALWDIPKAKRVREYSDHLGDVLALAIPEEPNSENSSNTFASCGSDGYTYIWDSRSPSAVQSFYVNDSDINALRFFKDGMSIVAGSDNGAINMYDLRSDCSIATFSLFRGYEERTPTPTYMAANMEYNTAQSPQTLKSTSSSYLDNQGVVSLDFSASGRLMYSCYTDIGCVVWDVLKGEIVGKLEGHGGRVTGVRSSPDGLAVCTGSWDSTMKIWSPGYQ
T1 sequence (looked up) 2: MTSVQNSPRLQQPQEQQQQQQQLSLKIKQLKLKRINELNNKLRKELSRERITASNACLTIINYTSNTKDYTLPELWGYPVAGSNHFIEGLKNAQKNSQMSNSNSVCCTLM
Assay: affinity purification with mass spectrometry

Gβ/Gβ^P− ratio (total MS intensity on Gβγ beads over that on Gβ^P−γ beads): 2.25
B1: myc-tagged Yck1 (yeast casein kinase 1) (enzyme, S. cerevisiae, UniProt P23291 1-538, looked up)
chain: MSMPIASTTLAVNNLTNINGNANFNVQANKQLHHQAVDSPARSSMTATTAANSNSNSSRDDSTIVGLHYKIGKKIGEGSFGVLFEGTNMINGVPVAIKFEPRKTEAPQLRDEYKTYKILNGTPNIPYAYYFGQEGLHNILVIDLLGPSLEDLFDWCGRKFSVKTVVQVAVQMITLIEDLHAHDLIYRDIKPDNFLIGRPGQPDANNIHLIDFGMAKQYRDPKTKQHIPYREKKSLSGTARYMSINTHLGREQSRRDDMEALGHVFFYFLRGHLPWQGLKAPNNKQKYEKIGEKKRSTNVYDLAQGLPVQFGRYLEIVRSLSFEECPDYEGYRKLLLSVLDDLGETADGQYDWMKLNDGRGWDLNINKKPNLHGYGHPNPPNEKSRKHRNKQLQMQQLQMQQLQQQQQQQQYAQKTEADMRNSQYKPKLDPTSYEAYQHQTQQKYLQEQQKRQQQQKLQEQQLQEQQLQQQQQQQQQLRATGQPPSQPQAQTQSQQFGARYQPQQQPSAALRTPEQHPNDDNSSLAASHKGFFQKLGCC

Gβ/Gβ^P− ratio (total MS intensity on Gβγ beads over that on Gβ^P−γ beads): 2.09
B2: endogenous Yck2 (untagged native protein) (enzyme, UniProt P23292 1-546, looked up)
chain: MSQVQSPLTATNSGLAVNNNTMNSQMPNRSNVRLVNGTLPPSLHVSSNLNHNTGNSSASYSGSQSRDDSTIVGLHYKIGKKIGEGSFGVLFEGTNMINGLPVAIKFEPRKTEAPQLKDEYRTYKILAGTPGIPQEYYFGQEGLHNILVIDLLGPSLEDLFDWCGRRFSVKTVVQVAVQMITLIEDLHAHDLIYRDIKPDNFLIGRPGQPDANKVHLIDFGMAKQYRDPKTKQHIPYREKKSLSGTARYMSINTHLGREQSRRDDMEAMGHVFFYFLRGQLPWQGLKAPNNKQKYEKIGEKKRLTNVYDLAQGLPIQFGRYLEIVRNLSFEETPDYEGYRMLLLSVLDDLGETADGQYDWMKLNGGRGWDLSINKKPNLHGYGHPNPPNEKSKRHRSKNHQYSSPDHHHHYNQQQQQQQAQAQAQAQAQAKVQQQQLQQAQAQQQANRYQLQPDDSHYDEEREASKLDPTSYEAYQQQTQQKYAQQQQKQMQQKSKQFANTGANGQTNKYPYNAQPTANDEQNAKNAAQDRNSNKSSKGFFSKLGCC
